Molecular target: T1, β1 integrins (UniProt P05556 21-798)
T1 construct: Endogenous protein of the epithelial membrane extract; also called beta 1 integrins
Assay: gel overlay with HeLa membrane extract

T1 sequence (P05556 21-798): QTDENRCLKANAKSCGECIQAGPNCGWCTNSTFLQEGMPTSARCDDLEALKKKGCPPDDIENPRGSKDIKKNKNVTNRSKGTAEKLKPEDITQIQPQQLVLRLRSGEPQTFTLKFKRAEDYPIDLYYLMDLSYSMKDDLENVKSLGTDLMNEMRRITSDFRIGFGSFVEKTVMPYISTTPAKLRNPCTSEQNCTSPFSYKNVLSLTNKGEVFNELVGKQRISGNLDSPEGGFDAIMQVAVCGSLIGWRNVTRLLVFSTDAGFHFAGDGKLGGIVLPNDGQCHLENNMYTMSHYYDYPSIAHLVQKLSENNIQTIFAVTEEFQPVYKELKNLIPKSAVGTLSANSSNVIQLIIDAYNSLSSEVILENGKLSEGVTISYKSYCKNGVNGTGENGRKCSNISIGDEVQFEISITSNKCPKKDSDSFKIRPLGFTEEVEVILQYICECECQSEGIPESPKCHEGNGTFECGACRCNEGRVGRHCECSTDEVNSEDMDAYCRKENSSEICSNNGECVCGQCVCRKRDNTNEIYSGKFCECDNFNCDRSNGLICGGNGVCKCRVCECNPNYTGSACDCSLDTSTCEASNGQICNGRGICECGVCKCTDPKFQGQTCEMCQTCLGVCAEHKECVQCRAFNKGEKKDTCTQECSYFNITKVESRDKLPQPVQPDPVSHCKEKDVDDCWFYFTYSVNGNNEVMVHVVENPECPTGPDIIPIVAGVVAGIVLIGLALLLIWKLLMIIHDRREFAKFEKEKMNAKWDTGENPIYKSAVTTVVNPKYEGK

B1: His-T7Int fusion protein (other)
chain: ITEIKADKTTAVANGQDAITYTVKVMKGDKPVSNQEVTFTTTLGKLSNSTEKTDTNGYAKVTLTSTTPGKSLVSARVSDVAVDVKAPEVEFFTTLTIDDGNIEIVGTGVKGKLPTVWLQYGQVNLKASGGNGKYTWRSANPAIASVDASSGQVTLKEKGTTTISVISSDNQTATYTIATPNSLIVPNMSKRVTYNDAVNTCKNFGGKLPSSQNELENVFKAWGAANKYEYYKSSQTIISWVQQTAQDAKSGVASTYDLVKQNPLNNIKASESNAYATCVK
notes: domain: 280 C-terminal residues of intimin; Purified on an agarose-nickel column; also called His-T7Intimin; His-T7Int peptide
B1: no binding.

From US7208574 (UNIVERSITY OF BRITISH COLUMBIA, dated 2007)
